No end group written: not given here.

Experimental findings from paper doi:10.1101/2024.06.26.600769 (bioRxiv, 2024) are described below.

Assay [1] concerns the target T1, E. coli β-clamp (bacterial DNA sliding clamp), His6-tagged (E. coli, UniProt P0A988 1-366). Briefly: NMR titration.
Assay [2] addresses T1, E. coli β-clamp (bacterial DNA sliding …). The assay is described as follows: ITC.

T1 sequence (P0A988 whole entry): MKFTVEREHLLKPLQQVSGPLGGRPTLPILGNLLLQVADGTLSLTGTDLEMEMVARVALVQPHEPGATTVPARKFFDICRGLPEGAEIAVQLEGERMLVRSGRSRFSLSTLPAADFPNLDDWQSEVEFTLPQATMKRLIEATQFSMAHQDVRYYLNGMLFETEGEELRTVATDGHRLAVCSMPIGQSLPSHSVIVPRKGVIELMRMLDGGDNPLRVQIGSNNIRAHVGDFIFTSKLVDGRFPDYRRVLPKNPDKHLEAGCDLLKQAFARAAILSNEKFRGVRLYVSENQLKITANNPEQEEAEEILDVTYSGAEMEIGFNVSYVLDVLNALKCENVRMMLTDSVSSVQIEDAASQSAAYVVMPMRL

B1: pol IV* peptide, 15-mer of the polymerase IV C-terminus with an N-terminal Trp (GWLDPQMERQLVLGL) (peptide)
peptide: GWLDPQMERQLVLGL
For B1, the binding result in assay [1] is recorded as “binds”.

B2: MutL* peptide, 16-mer with the clamp binding motif of MutL and an N-terminal Trp (GWGEAPVCAQPLLIPL-NH2) (peptide)
peptide: GWGEAPVCAQPLLIPL
modifications: not fully specified (C-terminus); printed as GWGEAPVCAQPLLIPL-NH2
For B2, the binding result in assay [1] was “binds”.

B3: pol III* peptide, 16-mer of the polymerase III α subunit C-terminus with an N-terminal Trp (DWRGLIGSEQVELEFD) (peptide)
peptide: DWRGLIGSEQVELEFD
As to B3, the binding result in assay [2] was “binds”.

B4: MutS* peptide, 16-mer with the clamp binding motif of MutS and an N-terminal Trp (GWATQVDGTQMSLLSV-NH2) (peptide)
peptide: GWATQVDGTQMSLLSV
modifications: not fully specified (C-terminus); printed as GWATQVDGTQMSLLSV-NH2
In the case of B4, the binding result in assay [1] is given as “binds”.
